We go through eight molecules from patent US20200317776A1 (published 2020).

To fix the notation:
T1: human TREM2 expressed on cells (human, UniProt Q9NZC2 19-230)
T1 construct: BW5147.G.1.4 cells stably expressing human TREM2 together with Dap12, or endogenous TREM2 of primary human myeloid cells; also called huT2 BW; hTREM2 expressing cell line
T1 sequence: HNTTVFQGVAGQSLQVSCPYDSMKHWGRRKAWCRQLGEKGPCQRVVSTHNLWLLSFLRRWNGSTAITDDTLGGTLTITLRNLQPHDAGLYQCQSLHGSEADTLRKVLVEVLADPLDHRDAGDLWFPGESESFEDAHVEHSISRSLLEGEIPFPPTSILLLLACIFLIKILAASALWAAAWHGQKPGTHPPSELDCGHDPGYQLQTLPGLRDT

T2: human TREM2 Fc fusion (entire TREM2 ECD; only one Fc arm fused to TREM2) (human, UniProt Q9NZC2 19-174)
T2 construct: also called huTREM2-Fc; recombinant hTREM2
T2 sequence: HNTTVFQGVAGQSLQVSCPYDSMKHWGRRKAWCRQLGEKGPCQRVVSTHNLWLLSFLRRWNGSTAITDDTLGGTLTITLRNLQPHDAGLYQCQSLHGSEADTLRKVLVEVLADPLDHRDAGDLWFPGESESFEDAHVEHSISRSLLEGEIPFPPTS

T3: cynomolgus monkey TREM2 Fc fusion (entire TREM2 ECD; only one Fc arm fused to TREM2) (cynomolgus monkey, UniProt Q9NZC2 19-174 (human entry))
T3 construct: also called cyno TREM2-Fc
T3 chain: T2 sequence with A10E, W60R, L89F, F125V

B1: AL2p-h77 (antibody, human IgG1, V domains shown)
VH: QVQLVQSGAEVKKPGASVKVSCKASGYAFSSSWMNWVRQAPGQRLEWIGRIYPGDGDTNYAQKFQGRVTITADTSASTAYMELSSLRSEDTAVYYCARLLRNQPGESYAMDYWGQGTLVTVSS
VL: DVVMTQSPDSLAVSLGERATINCRSSQSLVHSNGYTYLHWYQQKPGQSPKLLIYKVSNRFSGVPDRFSGSGSGTDFTLTISSLQAEDVAVYYCSQSTRVPYTFGGGTKVEIK
notes: humanized, human IgG1; Fab and IgG formats under one id; also called A2p-h77
B2: AL2p-37 (antibody, IgG1, V domains shown)
VH: B1 VH with S32Q, D55G, Q62G
VL: B1 VL
notes: Fab and IgG formats under one id; also called AL2p-37 huIgG1
B3: AL2p-h50 (antibody, human IgG1, V domains shown)
VH: B1 VH with A16S, R44G, I48M, T74E, A76T
VL: DVVMTQTPLSLSVTPGQPASISCRSSQSLVHSNGYTYLHWYLQKPGQSPQLLIYKVSNRFSGVPDRFSGSGSGTDFTLKISRVEAEDVGVYYCSQSTRVPYTFGQGTKLEIK
notes: humanized, human IgG1; Fab and IgG formats under one id
B4: AL2p-2 (antibody, V domains shown)
VH: B1 VH with A16S, R44G, I48M, D55G, T74E, A76T
VL: B3 VL
notes: AL2p-h50 variant; Fab and IgG formats under one id
B5: AL2p huIgG1 (human mouse chimeric parental antibody) (antibody, V domains shown)
VH: QVQLQQSGPELVKPGASLKISCKASGYAFSSSWMNWVKQRPGKGLEWIGRIYPGDGDTNYNGEFRVRATLTADTSSTTAYMQLSSLTSEDSAVYFCARLLRNQPGESYAMDYWGQGASVTVSS
VL: B3 VL with S12P, T14S, P15L, Q17D, P18Q, Q50K, E86D, V88L, Y92F, Q105G
notes: Mouse variable region with human IgG1 Fc region; Fab and IgG formats under one id; also called chimeric parental AL2p antibody as huIgG1
B6: AL2p-4 (antibody, V domains shown)
VH: B1 VH with A16S, R44G, I48M, D55Q, T74E, A76T
VL: B3 VL
B7: AL2p-60 (antibody, IgG1, V domains shown)
VH: B1 VH with A16S, S32Q, R44G, I48M, D55E, Q62R, T74E, A76T
VL: B3 VL with D1G, G34Q, F60R
B8: AL2p-59 (antibody, V domains shown)
VH: B1 VH with A16S, S32H, R44G, I48M, D55E, D57Q, F64R, T74E, A76T
VL: B3 VL with D1G, S25T, G34Q, F60V
notes: Fab and IgG formats under one id

Changes are numbered by the printed parent chain.

The first assay deals with T1, human TREM2 expressed on cells. Nature of the assay: FACS, hTREM2 BW cells. The gist of the method: (§1)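 Cells were BW5147.G.1.4 stably expressing human TREM2 with Dap12, or human monocyte-derived dendritic cells differentiated 6 days with GM-CSF and IL-4. Antibodies bound 1 h on ice in PBS+2% FBS, then PE anti-human secondary 30 min on ice; flow cytometry read-out as mean fluorescence intensity.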
The Kd is the concentration at which binding is half-saturated. The molecule B1 showed a Kd of 3.9 nM.

In turn, B2 displayed a Kd of 2.9 nM.

For B3, the affinity, expressed as Kd, was 3.7 nM.

B4 returned a Kd of 2.2 nM.

A further assay deals with T2, human TREM2 Fc fusion (entire TREM2 …). In words: BLI, Fab, monovalent. The procedure:
Briefly, IgG's were loaded on-line onto AHQ sensors. Sensors were equilibrated off-line in assay buffer for 30 minutes and then monitored on-line for 60 seconds for baseline establishment. For avid binding measurement, sensors with loaded IgGs were exposed to 100 nM antigen (human TREM2 Fc fusion using the entire TREM2 ECD; only one Fc arm was fused to TREM2) for 3 minutes, afterwards they were transferred to assay buffer for 3 minutes for off-rate measurement. Monovalent binding measurements were obtained by loading human TREM2 Fe fusion antigens to AHQ sensor and followed by exposure to 100 nM TREM2 antibody Fab. Kinetics data were fit using a 1:1 binding model in the data analysis software provided by ForteBio. Assay was run at room temperature (25° C.).
(In general: Biolayer interferometry detects binding as a change in optical thickness at a sensor tip.)
On to B1, for which binding was characterised by a dissociation constant (Kd) of 93.9 nM.

As for B5, binding was put at a Kd of 102 nM.

B3 came in with a Kd of 180 nM.

The next assay has as its target T1, human TREM2 expressed on cells. Nature of the assay: cell-based or functional assay.
Turning to B1, the “Survival huDCs plate bound IgG, AUC” value came out at 381000 AUC.

As for B2, the “Survival huDCs plate bound IgG, AUC” value came out at 680000 AUC.

In the case of B3, the “Survival huDCs plate bound IgG, AUC” value turned out to be 337000 AUC.

As to B4, the “Survival huDCs plate bound IgG, AUC” value turned out to be 461000 AUC.

In the next assay the target is T4, human TREM2/DAP12 fusion protein (human, UniProt O43914 41-113, limits assumed). Nature of the assay: cell-based or functional assay.
T4 sequence (O43914 other isoform, or with tags, fused parts or gaps limits assumed): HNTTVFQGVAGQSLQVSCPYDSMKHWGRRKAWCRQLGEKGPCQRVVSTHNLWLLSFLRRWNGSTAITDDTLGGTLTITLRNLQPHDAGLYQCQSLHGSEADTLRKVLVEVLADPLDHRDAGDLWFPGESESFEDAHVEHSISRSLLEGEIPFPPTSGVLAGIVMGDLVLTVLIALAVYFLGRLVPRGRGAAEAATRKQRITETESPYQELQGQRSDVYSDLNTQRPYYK
Consider B1, for which the “Luciferase activation plate bound 33 nM IgG, FOC” value was determined as 6.77 FOC and the “Luciferase activation soluble 10 nM IgG, FOC” value is 1.47 FOC.

For B2, the “Luciferase activation plate bound 33 nM IgG, FOC” value stood at 9.42 FOC and the “Luciferase activation soluble 10 nM IgG, FOC” value was found to be 2.16 FOC.

As to B3, the “Luciferase activation plate bound 33 nM IgG, FOC” value worked out at 6.83 FOC and the “Luciferase activation soluble 10 nM IgG, FOC” value turned out to be 1.26 FOC.

For B4, the “Luciferase activation plate bound 33 nM IgG, FOC” value was determined as 7.36 FOC and the “Luciferase activation soluble 10 nM IgG, FOC” value is 1.7 FOC.

Turning to B6, the “Luciferase activation plate bound 33 nM IgG, FOC” value was 7.42 FOC and the “Luciferase activation soluble 10 nM IgG, FOC” value was determined as 1.45 FOC.

Another assay has as its target T1, human TREM2 expressed on cells. Nature of the assay: FACS, human DCs. The gist of the method: as §1
(In flow cytometry, cells or beads pass a laser one at a time.)
B1 had an MFI of 162 MFI.

On to B2, for which the MFI was 194 MFI.

B3 had an MFI of 26 MFI.

A further assay has the same target. Nature of the assay: cell-based or functional assay. The source holds these as a separate data set.
Take B2: the “EC50 viability, dendritic cells D558” value worked out at 4.19 nM; the “EC50 viability, dendritic cells D559” value is 6.16 nM; the “EC50 viability, dendritic cells D560” value amounted to 4.47 nM; the “EC50 viability, macrophages D558” value came out at 1.24 nM. In addition, the “EC50 viability, macrophages D559” value was 18.3 nM and the “EC50 viability, macrophages D560” value turned out to be 31.8 nM.

For B5, the “EC50 viability, dendritic cells D558” value turned out to be 95.7 nM; the “EC50 viability, dendritic cells D559” value was 41.2 nM; the “EC50 viability, dendritic cells D560” value worked out at 55.1 nM; the “EC50 viability, macrophages D558” value was 12.3 nM. Moreover, the “EC50 viability, macrophages D559” value worked out at 146 nM and the “EC50 viability, macrophages D560” value was found to be 129 nM.

With B7, the “EC50 viability, dendritic cells D558” value was 0.152 nM; the “EC50 viability, dendritic cells D559” value turned out to be 0.244 nM; the “EC50 viability, dendritic cells D560” value was found to be 0.178 nM; the “EC50 viability, macrophages D559” value was determined as 0.194 nM. In addition, the “EC50 viability, macrophages D560” value stood at 0.154 nM.

Another assay has as its target T3, cynomolgus monkey TREM2 Fc fusion …. Nature of the assay: BLI, Fab, monovalent.
The molecule B1 showed an equilibrium dissociation constant (Kd) of 184 nM.

As for B2, binding was put at a Kd of 16.1 nM.

In turn, B3 came in with an equilibrium dissociation constant (Kd) of 7700 nM.

As to B8, binding was put at a Kd of 3.95 nM.

For the molecule B4, the Kd worked out at 1400 nM.

Another assay deals with T2, human TREM2 Fc fusion (entire TREM2 …). Nature of the assay: BLI, Fab, monovalent. The source holds these as a separate data set.
B1 showed an equilibrium dissociation constant (Kd) of 102 nM.

Molecule B2 yielded a Kd of 23.8 nM.

B3 registered a Kd of 112 nM.

Regarding B8, binding was characterised by a dissociation constant (Kd) of 3.85 nM.

Regarding B4, the Kd worked out at 63.3 nM.

The target in another assay is T1, human TREM2 expressed on cells. In words: FACS, hTREM2 BW cells. This is another data set of the same source.
As to B2, the “Bmax (MFI)” value worked out at 216000 MFI and binding was put at a Kd of 1.17 nM.

Take B5: the “Bmax (MFI)” value is 199000 MFI and the Kd was found to be 1.32 nM.

A further assay shares this target. Nature of the assay: FACS, hTREM2 BW cells. This is another data set of the same source.
In turn, B7 yielded a Kd of 1.12 nM.

For B8, the Kd came to 1.24 nM.

A further assay shares this target. In words: FACS, hTREM2 BW cells. The source holds these as a separate data set. How it is done:
To examine cell binding of anti-TREM2 antibodies, recombinant, human TREM2-expressing BW5147.G.1.4 cells (ATCC® TIB48™) were established by stably expressing either mouse TREM2 or human TREM2 together with Dap12 using viral infection. Cells were harvested by scraping, washed in PBS, counted and plated on 96-well U bottom plates at 1)(10⁵ cells/well. The plates were spun at 1,400 rpm for 3 minutes and primary anti-TREM2 or control antibodies were added in FACS buffer (PBS H2% FBS) and incubated on ice for one hour. Cells were subsequently centrifuged as before and washed thrice with FACS buffer. Cells were then incubated with anti-human PE conjugated secondary antibody (BD Biosciences) in FACS buffer for 30 minutes on ice. Cells were again washed thrice with FACS buffer and analyzed on a BD FACS Canto. Binding was measured as mean fluorescence intensity in the APC channel.
B1: the “cell binding (FOB)” value was 83 FOB.

Take B5: the “cell binding (FOB)” value came out at 79 FOB.

In the case of B3, the “cell binding (FOB)” value was determined as 78 FOB.

The next assay deals with T4, human TREM2/DAP12 fusion protein. Nature of the assay: cell-based or functional assay. The source holds these as a separate data set.
For the molecule B1, the “Soluble luciferase activation at 10 µg/ml Fold over control” value was determined as 7.14 fold over control.

On to B5, for which the “Soluble luciferase activation at 10 µg/ml Fold over control” value was 3.55 fold over control.

With B3, the “Soluble luciferase activation at 10 µg/ml Fold over control” value was determined as 6.36 fold over control.

The target is the same in the next assay. Nature of the assay: cell-based or functional assay. This is another data set of the same source.
With B2, the “Plate bound IgG, fold over unstimulated control (25 nM IgG)” value turned out to be 1.56 fold; the “Soluble IgG, EC50” value was determined as 9.41 nM; the “Soluble IgG, fold over control IgG (17 nM IgG)” value worked out at 7.63 fold.

In the case of B5, the “Plate bound IgG, fold over unstimulated control (25 nM IgG)” value was 1.29 fold; the “Soluble IgG, EC50” value came to 14.6 nM; the “Soluble IgG, fold over control IgG (17 nM IgG)” value was 4.51 fold.

The target of the next assay is T2, human TREM2 Fc fusion (entire TREM2 …). Nature of the assay: BLI, IgG, avid. An outline of the steps: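 Avid format: AHQ-loaded IgGs exposed to 100 nM human or cyno TREM2-Fc antigen, 3 min association, 3 min dissociation in buffer. Monovalent format: human TREM2-Fc loaded on AHQ sensors, exposed to 100 nM Fab. Kinetics fit to 1:1 model, run at 25° C.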
In turn, B1 registered a Kd of 1.17 nM.

For the molecule B2, the affinity, expressed as Kd, was 0.779 nM.

The molecule B3 came in with a Kd of 1.19 nM.

B4 came in with a Kd of 0.837 nM.

The target of another assay is T4, human TREM2/DAP12 fusion protein. Nature of the assay: cell-based or functional assay. The source holds these as a separate data set.
Regarding B1, the “luciferase activation, soluble IgG, EC50” value was determined as 20.1 nM.

With B3, the “luciferase activation, soluble IgG, EC50” value was determined as 63.1 nM.

B8: the “luciferase activation, soluble IgG, EC50” value worked out at 11.2 nM.

B4: the “luciferase activation, soluble IgG, EC50” value was 23 nM.

As for B6, the “luciferase activation, soluble IgG, EC50” value was determined as 66.2 nM.
